Reference: article PMC4224142

Biological target: JunD, endogenous in LNCaP cells (human (endogenous in LNCaP)) (UniProt P17535)
Assay: proximity ligation

Chain of UniProt P17535 (P17535 whole entry): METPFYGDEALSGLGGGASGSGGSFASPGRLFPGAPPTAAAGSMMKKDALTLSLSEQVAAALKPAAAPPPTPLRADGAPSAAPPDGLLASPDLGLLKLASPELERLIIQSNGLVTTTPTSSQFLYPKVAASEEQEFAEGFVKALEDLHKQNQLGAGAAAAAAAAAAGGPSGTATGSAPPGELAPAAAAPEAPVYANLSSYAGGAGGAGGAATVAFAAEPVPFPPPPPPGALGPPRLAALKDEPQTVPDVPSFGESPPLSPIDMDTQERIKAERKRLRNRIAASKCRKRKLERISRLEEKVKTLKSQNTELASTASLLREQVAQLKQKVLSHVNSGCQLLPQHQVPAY

fold induction of PLA spots per cell by androgen (against cells without R1881): 3 fold
Substance: Androgen receptor (AR), endogenous in LNCaP cells (from UniProt P10275 1-920)
